This is an account of results in article PMC4070327 (Science (New York, N.Y.), 2014).

The target in test [1] is T1, E. coli Trigger Factor (TF), full length (E. coli, UniProt P0A850 1-432).
T1 sequence (looked up): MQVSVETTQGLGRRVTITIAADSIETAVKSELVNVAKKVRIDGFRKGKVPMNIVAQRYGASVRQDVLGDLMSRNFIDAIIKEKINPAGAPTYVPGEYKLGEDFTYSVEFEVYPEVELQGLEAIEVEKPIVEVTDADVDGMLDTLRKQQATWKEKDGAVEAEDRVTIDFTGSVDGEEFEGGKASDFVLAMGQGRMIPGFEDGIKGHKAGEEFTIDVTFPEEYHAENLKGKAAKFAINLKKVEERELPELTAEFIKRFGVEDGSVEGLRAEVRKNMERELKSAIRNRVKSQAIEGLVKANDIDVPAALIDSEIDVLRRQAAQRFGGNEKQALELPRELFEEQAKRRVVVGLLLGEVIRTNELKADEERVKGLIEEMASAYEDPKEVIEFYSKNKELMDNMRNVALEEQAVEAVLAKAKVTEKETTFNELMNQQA
In words: ITC + NMR titration.

The target in test [2] is T1, E. coli Trigger Factor (TF), full length. The test is described as follows: ITC. (In general: Isothermal titration calorimetry measures the heat released or taken up as one component is titrated into another.)
Test [3] has the same target. In words: NMR titration.

Usually Kd stands for a measure of binding affinity in units of concentration. As usually defined, the stoichiometry N is the number of molecules, sites or subunits per partner or assembly.

B1: PhoA site b (independent fragment) (domain or fragment)
chain: TPEMPVLENRAAQGDITAPGGARRLTGDQTAALRDSLSDKPAKNIILLIGDGMGDS
On to B1, for which the equilibrium dissociation constant (Kd) in test [1] was approximately 200 µM.

B2: PhoA^a-c (PhoA fragment with TF-binding sites a to c) (domain or fragment, E. coli, UniProt P00634 1-150, looked up)
chain: MKQSTIALALLPLLFTPVTKARTPEMPVLENRAAQGDITAPGGARRLTGDQTAALRDSLSDKPAKNIILLIGDGMGDSEITAARNYAEGAGGFFKGIDALPLTGQYTHYALNKKTGKPDYVTDSAASATAWSTGVKTYNGALGVDIHEKD
Molecule B2 had a Kd in test [2] of approximately 2 µM. Further, in test [3], the “stoichiometry N” value was 1 TF per PhoA^a-c.

B3: PhoA^f-g (PhoA fragment with TF-binding sites f and g) (domain or fragment, E. coli)
chain: QIGETVDLDEAVQRALEFAKKEGNTLVIVTADHAHASQIVAPDTKAPGLTQALNTKDGAVMVMSYGNSEEDSQEHTGSQLRIAAYGPHAANVVGLTDQTDLFYTMKAALGLK
B3: in test [2], the Kd was approximately 14 µM.

B4: PhoA^d-e (PhoA fragment with TF-binding sites d and e) (domain or fragment, E. coli)
chain: ARADVTLGGGAKTFAETATAGEWQGKTLREQAQARGYQLVSDAASLNSVTEANQQKPLLGLFADGNMPVRWLGPKATYHGNIDKPAVTCTP
For the molecule B4, the Kd in test [2] was approximately 4 µM.
